Results published in patent publication EP2158221B1 (MacroGenics, Inc., dated 2018).

T1: sCD32B-Ig (human, UniProt P31994 43-217)
T1 construct: extracellular domain; also called CD32B (plate coat of the sandwich ELISA); not shown: Ig part not described
T1 sequence (looked up): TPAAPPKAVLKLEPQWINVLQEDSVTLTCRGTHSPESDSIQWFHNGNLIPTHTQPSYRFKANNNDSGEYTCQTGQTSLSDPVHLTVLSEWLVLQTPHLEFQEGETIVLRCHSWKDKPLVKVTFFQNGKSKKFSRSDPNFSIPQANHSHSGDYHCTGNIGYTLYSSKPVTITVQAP

B1: diabody of constructs 9 and 1 (pMGX0719 + pMGX0669) (bispecific antibody, human IgG1)
chain 1: not shown
chain 2: EIVLTQSPDFQSVTPKEKVTFTCRTSQSIGTNIHWYQQKPDQSPKLLIKEVSESISGVPSRFSGSGSGTDFTLTINSLEAEDAATYYCQQSNTWPFTFGGGTKVEIKGGGSGGGGQVTLRESGPALVKPTQTLTLTCTFSGFSLSTSGMGVGWIRQPPGKALEWLAHIWWDDDKRYNPALKSRLTISKDTSKNQVVLTMTNMDPVDTATYYCAQINPAWFAYWGQGTLVTVSSLGGC
notes: hinge/Fc at the N-terminus of the heavier chain; about 150 kDa species on Western blot; also called constructs 1 and 9; constructs 9+1
B2: diabody of constructs 10 and 1 (pMGX0718 + pMGX0669) (bispecific antibody)
chain 1: not shown
chain 2: B1 chain 2
notes: Fc at the N-terminus of the heavier chain; at least two species of about 75 and 100 kDa on Western blot; also called constructs 1 and 10; constructs 10+1; copies: 2 + 2

Experiments:
sCD32B-Ig = target: T1, sCD32B-Ig; assay: sandwich ELISA, CD32B coat, HRP-CD16 probe
soluble CD16A (sCD16A) = target: T2, soluble CD16A (sCD16A) (human, UniProt P08637 17-208); assay: sandwich ELISA, CD32B coat, HRP-CD16 probe
T2 construct: extracellular domain; also called sCD16A-Biotin; HRP conjugated sCD16A
T2 sequence (P08637 17-208): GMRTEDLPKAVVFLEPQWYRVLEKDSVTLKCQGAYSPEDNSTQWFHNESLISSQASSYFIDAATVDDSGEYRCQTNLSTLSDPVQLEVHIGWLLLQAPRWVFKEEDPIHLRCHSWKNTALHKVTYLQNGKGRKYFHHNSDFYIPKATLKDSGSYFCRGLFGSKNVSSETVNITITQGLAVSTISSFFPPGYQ

Row | binding result (sCD32B-Ig) | binding result (soluble CD16A (sCD16A)) | Binder
1 | binds | binds | B1
2 | binds | binds | B2
